Assay results taken from patent US20110212476A1.

Experiments:
Experiment in all cases: cell-based or functional assay
Gαi1 R178C/A326S (human) = molecular target: Gαi1 R178C/A326S (human)
Gαi1 R178M (human) = molecular target: Gαi1 R178M (human)
Gαi1 A326S (human) = molecular target: Gαi1 A326S (human)
[1] = molecular target: Gαi1 wild type (full length human, His-tagged) (human)
Gαi1 R178C (human) = molecular target: Gαi1 R178C (human)
Gαi1 R178M/A326S (human) = molecular target: Gαi1 R178M/A326S (human)
Chain of Gαi1 R178M/A326S (human) (B2RSH2 2-354 R178M/A326S): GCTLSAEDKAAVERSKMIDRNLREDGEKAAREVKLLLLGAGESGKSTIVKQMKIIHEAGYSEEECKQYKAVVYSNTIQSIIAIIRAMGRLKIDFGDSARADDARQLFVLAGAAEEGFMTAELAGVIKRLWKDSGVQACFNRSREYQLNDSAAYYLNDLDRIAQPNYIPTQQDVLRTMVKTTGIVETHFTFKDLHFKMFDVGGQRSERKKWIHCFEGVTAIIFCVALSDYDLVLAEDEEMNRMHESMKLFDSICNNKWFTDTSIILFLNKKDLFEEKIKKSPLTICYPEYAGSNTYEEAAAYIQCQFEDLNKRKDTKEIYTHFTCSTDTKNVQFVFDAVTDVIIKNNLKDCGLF

Chain of human His-tagged RGS4 (23-298) (P49798 other isoform, or with tags, fused parts or gaps limits assumed): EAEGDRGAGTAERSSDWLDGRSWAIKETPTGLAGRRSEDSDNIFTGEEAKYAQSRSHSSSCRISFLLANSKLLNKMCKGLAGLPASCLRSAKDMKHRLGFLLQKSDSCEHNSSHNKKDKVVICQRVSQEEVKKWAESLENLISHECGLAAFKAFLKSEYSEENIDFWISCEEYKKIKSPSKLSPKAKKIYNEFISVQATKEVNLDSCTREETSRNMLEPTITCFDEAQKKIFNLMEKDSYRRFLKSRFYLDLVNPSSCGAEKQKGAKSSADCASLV
Chain of Gαi1 R178M (human) (B2RSH2 2-354 R178M): as the sequence (B2RSH2 2-354 R178M/A326S) above, with S325A counted along it
Chain of Gαi1 R178C (human) (B2RSH2 2-354 R178C): as the sequence (B2RSH2 2-354 R178M/A326S) above, with M177C, S325A counted along it
Chain of Gαi1 A326S (human) (B2RSH2 2-354 A326S): as the sequence (B2RSH2 2-354 R178M/A326S) above, with M177R counted along it
Chain of Gαi1 wild type (full length human, His-tagged) (human) (B2RSH2 2-354): as the sequence (B2RSH2 2-354 R178M/A326S) above, with M177R, S325A counted along it
Chain of Gαi1 R178C/A326S (human) (B2RSH2 2-354 R178C/A326S): as the sequence (B2RSH2 2-354 R178M/A326S) above, with M177C counted along it

GAP Factor (Gαi1 R178C/A326S (human)): 3.63 fold
GTPase rate +RGS4 (steady state, GDP immunodetection) (Gαi1 R178C/A326S (human)): 0.069 min⁻¹
GAP Factor (Gαi1 R178M (human)): 1.19 fold
GTPase rate +RGS4 (steady state, GDP immunodetection) (Gαi1 R178M (human)): 0.007 min⁻¹
GAP Factor (Gαi1 A326S (human)): 1.1 fold
GTPase rate +RGS4 (steady state, GDP immunodetection) (Gαi1 A326S (human)): 0.11 min⁻¹
GAP Factor [1]: 0.81 fold
GTPase rate +RGS4 (steady state, GDP immunodetection) [1]: 0.013 min⁻¹
GAP Factor (Gαi1 R178C (human)): 0.92 fold
GTPase rate +RGS4 (steady state, GDP immunodetection) (Gαi1 R178C (human)): 0.00035 min⁻¹
GAP Factor (Gαi1 R178M/A326S (human)): 6.47 fold
GTPase rate +RGS4 (steady state, GDP immunodetection) (Gαi1 R178M/A326S (human)): 0.097 min⁻¹
maximum polarization shift resulting from RGS stimulation (Gαi1 R178M/A326S (human)): 73 mP
stimulation of GTPase activity (Gαi1 R178M/A326S (human)): 6.6 fold
Substance: human His-tagged RGS4 (23-298) (from UniProt P49798 23-298)
